{"source": "paper PMC7693302", "molecular_target": "S2 domain of SARS-CoV-2 S protein (from S protein with FLAG at both N- and C-termini) (SARS-CoV-2)", "assay": "co-sedimentation"}
{"substance": "S1 domain of S^G614 (from S protein with FLAG at both N- and C-termini) (domain or fragment)", "values": [{"measurement": "fold S1:S2 ratio against PV^D614", "result": 3.5, "unit": "fold"}]}
